The data set in a line: soluble on expression in E. coli; label from the status in PepcDB or PDB records.
Consider “MDKFKGAVMVGALRLFALLPWRAVQWVGTAIGWLMWKLPNRSREVARINLSKCFPELSEPELEKLVGRSLMDIGKTLTESACAWIWPAQKSINLVREVEGLEVLKDALASGKGVVGITSHLGNWEVLNHFYCSQCKPIIFYRPPKLKAVDDLLRKQRVQLGNRVAASTKEGILSVIKEVRKGGSVGIPADPEPAESAGIFVPFCGTQALTSKFVPNMLAGGKAVGVFLHAMRLPDGSGYKVVLEAAPEAMYSTDTQTSAAAMSKVVEKYVRAYPSQYMWTMKRFKK”, for which the “soluble on expression in E. coli” value is “not soluble”.
Under “MDKFKSMTELKELTKEGKDWEIECENRSSIVTILALHGGGIEPATTELAYTIAHCGDYNYFSFKGMRSKGNNELHVTSTHYDDQIALDLVRGSQRTVAIHGCEGNESVAYIGGSDDRLIELITESLEDIGISVREAPHHISGTQENNIVNMTQTQGGVQLELTAQLRKELFKNRKSSRKNRENKDNWDDLMYDFADAMKKAIERALEHHHHHH” stands “soluble”; under “MDKIKVGLQYWIPQHGLTRLVGKLASAKAGSLTTAVIRWFIKQYNVNMDEAKHSDPKHFKTFNEFFVRELKEGARPITEGDEIITHPADACVSQFGPIEDGQLIQAKGHNYSAQELLGGDEKLAEEFKDGSFATLYLSPRDYHRVHMPCDGTLRQMIYVPGDLFSVNPLTAENVPNLFARNERVVCIFDTEFGPMAQVLVGATIVGSIEQVWAGTITPPRGNTVYKWDYPAEGDKAVILKKGEEMGRFKLGSTVINLFAKDAIEFDVSMENGQPTVMGTPYALKKLEHHHHHH”, “soluble”.
Regarding “MDKLIIGGIEIKNRLFVGSGKYPSNEIIKDVLEGSGSQVITLALRRVDLDNKEEDILQNIPKDVILLPNTSGATNAEEAIRIARIARAMGCGNWIKIEVISDSKYLLPDNEETIKATKVLADEGFIVLPYMCPDIYAGRRLIEAGAAAVMPLGAPIGSNRGLKTKELIQIMIDELDIPIIVDAGIGKPSQAMEAMEMGAAACLVNTAIASSEDPINMARAFKVAVEGGRLAYEAKMGRESKFGNASSPLTGFLDLEHHHHHH”, the “soluble on expression in E. coli” value is listed as “not soluble”.
Under “MDKPQEECGILGLWSEGPVDVAGLLHLGLLALQHRGQEAAGMAVTDGKAFLVEKDLGLVNQVFTEERLGKLRLPEARLGIAHTRYSTTGSNLRINAQPLTARTAHGVLAIAHNGNFTNAKLLRDRLLLEGATFQSTSDTEVMLLLLARMGHLPLPEAAAQAMRLLQGGYSILLMNRKTLLALRDPHGVRPLVLGKAPWGYAFASEPPALLLMGAEYVRDVRPGEVVWVEEGRLQSLQALPPEPAPCAFEWIYFARPDSVLDGTEAYEARVRMGMELFREAPAEADLVVPVPDSGIGAAVGYAKASGLPLEFGLYKNPYAGRTFIQPTQELRDLKTRLKLSPTGAVKGKRVVLVDDSIVRGTTSRRIVRMLKEAGALEVHFRVSSPPIRFPCYYGIDTAARKELIAAEKSVEEIQAYIGADSLAFLSEEGVKRAIGRPVCLACFNGRYPAGVPEEGEKLALELL” stands “soluble”; under “MDLKGGESMVDWKLMQEIIEAPGVSGYEHLGIRDIVVDVLKEVADEVKVDKLGNVIAHFKGSSPRIMVAAHMDKIGVMVNHIDKDGYLHIVPIGGVLPETLVAQRIRFFTEKGERYGVVGVLPPHLRRGQEDKGSKIDWDQIVVDVGASSKEEAEEMGFRVGTVGEFAPNFTRLNEHRFATPYLDDRICLYAMIEAARQLGDHEADIYIVGSVQEEVGLRGARVASYAINPEVGIAMDVTFAKQPHDKGKIVPELGKGPVMDVGPNINPKLRAFADEVAKKYEIPLQVEPSPRPTGTDANVMQINREGVATAVLSIPIRYMHSQVELADARDVDNTIKLAKALLEELKPMDFTP”, “soluble”; under “MDLLSLKTVTTLSDCVTIAEQDQVKIVRVIHDKASAAISLHGGHVLSFQPKGQADLLWMSSQAIYDGKAALRGGIPVCWPWFGRIAAPAHGFARNQEWKLIEHREIEQGVIVTLGLQATPESLAIWPYQFDVRLHVEIRESLTVTLDVTNTDSKAWTFSGALHTYLHVGDIRETQTSGVGTEYIDSLQNSRLCTQHGLLTLTDTIDRVYTQPEPLITVQDPALARTLTVENQGHNSAVLWNPWQQGAQSMADMNDEGYLHFLCVESTLHAPSLAEGITLQPGQNHQLVTQITSQAQ”, “not soluble”.
Under “MDLPVMPPVKPMLAKSVAKIPPGMHYEAKWDGFRAIVYRDGDEVELGSRTGKPLTRYFPELVVAVRERLPERCVVDGEIVIARDGHLDFDALTERIHPADSRVRTLAERTPASLVAFDLLALDDASLLDVGLADRRALLVRALSGVTPPVHVAPATDDIEVARRWFEQYEGAGLDGVVAKPLDLRYRQDERAMYKIKHERTADVVVAGYRFHKSGPVVGSLLLGLYDDRGLLQHVGVSAAFTMKRRAELVAELEPLRMDDARGHPWAAWAEEAAHESARLPGAPSRWSGKKDLSWVPLRPERVVEVAYDHMENGARFRHTARFRRWRPDRTPESCTYAQLEEPVRYDLAEILGGPLEHHHHHH” stands “not soluble”; under “MDLSQLTPRRPYLLRAFYEWLLDNQLTPHLVVDVTLPGVQVPMEYARDGQIVLNIAPRAVGNLELANDEVRFNARFGGIPRQVSVPLAAVLAIYARENGAGTMFEPEAAYDEDTSIMN”, “soluble”.
As for “MDMERNRLYFFYKRDDKLIERVKPLIELAERGPFVVVDDYREANIIVSIGDDGAFLQAVRQTGFLPDRLYVGVSVLPARGFYCDFHIDDIDHMVEAAKNWKLEVRRYPIIEVTIDGAASFFCLNECSIRSQIIKTMAIDVFIDDLHFETFRGDGIIVSTPTGSTGYNKSVHGAVVDPLLPCFQVSELASLNSNRYRTLGSPFILSGSRTLTLKMSEETSHFPIIGLDNEALSIQHIERIDIRLSDRVVKTVRLKDNSFWDKVKRVFL”, the “soluble on expression in E. coli” value is reported as “not soluble”.
Regarding “MDMPVDPNEPTYCLCHQVSYGEMIGCDNPDCSIEWFHFACVGLTTKPRGKWFCPRCSQER”, the “soluble on expression in E. coli” value is reported as “soluble”.
In the case of “MDMTDMTTTGSATEAATAAASSTPLPTFGQSLTEQLTPILGDAETQQLASLIAHLPTIKGQTDEQSIALYVDTLTQLKEKNSVFSGAALSESASIWMRSLQRVSSNGKMDSAELATQMNNALASQFQTWFADQLTDKVDSSLPTQFVSQFQLGTESTQAQQIAKLSAEELKSATGDIASFVDDLARQMSSSVVRESASSFLRNAFAHLPSMNLAQLKASDFLLTEANFVTNVSTQLQNVFKQIGITLTKDVADELAKRITWTPGISKQQLSEVLSEMATQVKGQFTAAYGETAGTENLRKALDAIIKSSDSLTLSSLFANFAVSLIHTEIDAFYNDKAIADIQKTQISADQAELIKNNTERDIRFQFEKMLKGESTGASFIERYETLRKNL”, the “soluble on expression in E. coli” value is recorded as “not soluble”.
With “MDNKTYEISSAEWEVMNIIWMKKYASANNIIEEIQMQKDWSPKTIRTLITRLYKKGFIDRKKDNKIFQYYSLVEESDIKYKTSKNFINKVYKGGFNSLVLNFVEKEDLSQDEIEELRNILNKK”, the “soluble on expression in E. coli” value is on record as “soluble”.
For “MDNLETDRLILINYTLEMIQATINGTEALEKTSGYHVSPDWPGIDFFFYLPYVLENVKKDDKMIKWTRLVVLKTENKIIGEIGGQGNPDETGEIEIGYSIVPDYQNKGYMSEALISMIDWLEHQPVINRIFARCYEQNEASIQVLKHNHFVHIKEKDTEEKQGRVMMWEYPIKQT”, the “soluble on expression in E. coli” value is “not soluble”.
In the case of “MDNLKAELAQAKIDIDQLEKKQWETLEQLVMRDKLIEQCSLHTEILQKDFRESEARIIQLEQQLLEPGECGSELRATIKNQEELLKKQSEEIERCKEESRMLIQQKEEMENIHSEEIFGKNKTISNLRKQIDGDVERKKAKIRTLRKELCSADMNTGKMCRRAKRAEDRIAKLESDLEEERQKHVGQDISHILDQHNSTVMALEMQLANTQQEKATLNTSVEDLKLRTEEWKHNLLGQFEVLTANSKRECESKEEQIANHKREIMEKDSKIECLMELIQNSERSAEIQKMHDALREKDLKISELSEKLQGLLINQEGEADDTMIDQDDDNKSTHSEDSDGWDKINAI” it was “not soluble”; in that of “MDNLVDIDEDGTQEKLSVNSTPYQTQECVLYGSIFAKNVPDLERRLAGLCDPGCEEFFEHEMSFSLRSSGIMDIKTDIKLRRRFRTEHRIQNYWQLKYIGVPEPDQKCPTIVRKEISSLVHSQDMMTYAKSLGLRMDYEYMTQGKLWTKGNIKILHSILTSTSRAGTYDSNSIKSVSDSALVEISISLPESAEYMPAAKSLRDFADQLMPLVNMEKVDYWKKMFPAQAAPRR”, “soluble”.
